This note sets out measurements from publication PMC6356862, “A polyextremophilic alcohol dehydrogenase from the Atlantis II Deep Red Sea brine pool” (FEBS Open Bio, 2018).

Series [1] has as its target Alcohol dehydrogenase/A1a (ADH/A1a) from an uncultured MSBL1 archaeon of the Atlantis II Deep Red Sea brine pool (uncultured MSBL1 (Mediterranean Sea Brine Lake 1) archaeon). In words: native gel or EMSA; Coomassie-stained native PAGE of purified ADH/A1a (Fig. S4); conditions not given. (In general: Mobility shift assays separate free from complexed probe on a gel.)
Substrate in series [2]: CCO
In words: purified protein. The conditions noted are these: standard oxidation conditions: 3 M KCl, 50 mM glycine/NaOH pH 10.0, 60 °C, 10 mM NAD(P)+, 0.4 mM zinc sulfate, cofactor (NAD+ or NADP+) not specified.

Substrate in series [3]: CC(C)=CCC/C(C)=C/CO
In words: purified protein. Type of series: biochemical, candidate division MSBL1 archaeon SCGC-AAA261F19. The conditions noted are these: standard oxidation conditions: 3 M KCl, 50 mM glycine/NaOH pH 10.0, 60 °C, 10 mM NAD(P)+, 0.4 mM zinc sulfate, cofactor (NAD+ or NADP+) not specified.

Substrate in series [4]: OC/C=C/c1ccccc1
In words: purified protein. Type of series: biochemical, candidate division MSBL1 archaeon SCGC-AAA261F19. The following applies: standard oxidation conditions: 3 M KCl, 50 mM glycine/NaOH pH 10.0, 60 °C, 10 mM NAD(P)+, 0.4 mM zinc sulfate, cofactor (NAD+ or NADP+) not specified.

For the molecule “Alcohol dehydrogenase/A1a (ADH/A1a) from an uncultured MSBL1 archaeon of the Atlantis II Deep Red Sea brine pool (enzyme)”, the stoichiometry N (as a rule, a count of units in the complex or per binding partner) in series [1] was 4.

B1: ADH/A1a (candidate division MSBL1 archaeon SCGC-AAA261F19) (protein)
chain: MKAMQLKEPKPVEQAPLEMVELKEPRPGPKEVKIDVQACGVCHTDLHTVEGELSLPKLPIVPGHEVVGVVEESGDEAEHFEVGDRVGVTWLYSSCGECKFCRRGQENLCEDPMFTGLHADGGYEESMVAKEDFVYPIPKNISDEDAAPLLCAGVIGYRSLRLSEVKPGQRLGLFGFGASAHIVIQLATDMGCEVYVFTRSEEHRRLARELGSAWEGSAKDDPPHRIDSGITFAPVGWIVKEALRDLEKGGTLAINAIHMTPIPELDYDLIYHEKKLRSVANVTREDAEGFLKIAGDIPVQTEVETFPLEEANRALRLLKDSKINGAGVLKVS
notes: N-terminal 20-residue nonsense region of annotated adh/a1 deleted; N-terminal His6-tag; codon-optimized, expressed in Haloferax volcanii H1895 (pTA963); zinc added
For the molecule B1, in “purified protein [2]”, the Michaelis-Menten constant (Km) (usually the substrate concentration at which the rate is half of its maximum) worked out at 94430 ± 8400 µM; the maximum rate (Vmax) – broadly, the rate approached at saturating substrate – was 0.142 µmol/min/mg; the kcat (usually the maximal rate divided by the concentration of active sites) was 0.089 s⁻¹; the specificity constant (kcat/Km) (usually the turnover number divided by the Michaelis constant) was 0.94 M⁻¹ s⁻¹. Further, in the series “purified protein [3]”, the Km was 270 ± 40 µM, the Vmax worked out at 0.131 µmol/min/mg, the kcat amounted to 0.082 ± 0.003 s⁻¹ and the kcat/Km was determined as 290 ± 18 M⁻¹ s⁻¹. For the same molecule, in “purified protein [4]”, the Michaelis constant (Km) came to 470 ± 90 µM, the maximum rate (Vmax) worked out at 0.237 µmol/min/mg, the kcat amounted to 0.144 ± 0.009 s⁻¹ and the kcat/Km worked out at 310 ± 10 M⁻¹ s⁻¹.
